Reference: US20220144940A1 (VIELA BIO, published 2022)
Where “and” joins values, the source holds several entries; their conditions need not be identical. Equal entries are not always repeated.

Tests used:
cynomolgus ILT7 [1] = target: T1, cynomolgus ILT7 (cynomolgus, UniProt P59901 24-499 (human entry)); assay: FACS on CHO cells expressing recombinant cyno ILT7; reference antibody of the comparison
T1 construct: also called cyno ILT7; cynomolgus monkey ILT7

human ILT7 = target: T2, human ILT7 (human, UniProt P59901 24-499); assay: FACS on CHO cells expressing recombinant human ILT7; reference antibody of the comparison
T2 construct: whole, on cells; also called LIRA4; LILRA4

cynomolgus ILT7 [2] = target: T1, cynomolgus ILT7; assay: flow cytometry on cynomolgus ILT7-expressing cells, right panel 'Cyno ILT7', table 'Ec50 (nM)'
Experimental: (§1) Binding of anti-ILT7 variants and isotype controls on human and cynomolgus ILT7 was assessed by flow cytometry analysis using CT-550 and cynoILT7 CT-125 cells respectively. CT-125 cells were used as control. Cells were resuspended in Blocking Buffer (PBS supplemented with 10% FBS) at a concentration of 5 million cells per mL and transferred into a round-bottom 96-well plates (BD Falcon™ Clear Microtest Plate, BD Biosciences) at 100 μL per well. Anti-ILT7 variants and control antibodies were added onto the cells for 30 min at 4° C. on a plate shaker. Cells were washed three times with PBS and resuspended in Blocking Buffer (100 μL/well). Human IgG binding on cell surface was detected using a secondary anti-human IgG antibody conjugated to DyLight 649 (1 in 1000 dilution). Cells were incubated in the dark for 30 min at 4° C. on a plate shaker. Cells were washed three times with PBS and surface fluorescence was acquired using LSRII Flow Cytometry System and FACSDiva Software (both from BD Biosciences).

[3] = target: T3, HA-tagged human ILT7 on CT-550 cells (human, UniProt P59901 24-499); assay: flow cytometry on human ILT7-expressing cells, left panel 'Human ILT7', table 'Ec50 (nM)'
T3 construct: whole, on cells; CT-550 cells: CT-125 cells (2B4 murine T-cell hybridoma with mouse FcεRIγ and NFAT-GFP reporter) transduced with HA-tagged human ILT7; also called human ILT7-expressing cells; not shown: HA tag
Experimental: as §1

cynomolgus ILT7 [4] = target: T1, cynomolgus ILT7; assay: flow cytometry on CynoILT7 CT-125 cells
Experimental: as §1
In order to determine the binding EC₅₀ of the variants on cells expressing cynomolgus ILT7, the antibodies were screened for binding on CynoILT7 CT-125 cells by flow cytometry. […] The graph in FIG. 3 represents the mean results from two independent experiments, and the table in FIG. 3 show the average EC₅₀.

cynomolgus ILT7 [5] = target: T1, cynomolgus ILT7; assay: flow cytometry on cells expressing cynomolgus ILT7 (CT-125 cells)
Experimental: as §1
The resultant IgG1s were tested to confirm that the sequence changes incorporated into ILT70080 and ILT70083 and had not adversely impacted the binding of the parent antibody to cells expressing human ILT7 (CT-550 cells) or cynomolgus ILT7 (CT-125 cells). The variants were screened for binding by flow cytometry. […]

[6] = target: T3, HA-tagged human ILT7 on CT-550 cells; assay: flow cytometry on CT-550 cells
Experimental: as §1
In order to determine the binding EC50 of ILT70019, ILT70028, ILT70052, ILT70076, ILT70080, ILT70083, ILT70089, ILT70100, ILT70137, ILT70142 and ILT70144 on cells expressing human ILT7, the candidates were screened for binding on CT-550 cells by flow cytometry. ILT70080 (EC₅₀=0.28 nM), ILT70083 (EC₅₀=0.37 nM), ILT70137 (EC₅₀=0.41 nM), ILT70144, ILT70142, ILT70052, and ILT70100 bound to human ILT7-expressing cells. […] The anti-ILT7 antibodies 7C7 (7C7 is described above in Example 1) and SBI33 (SBI33 refers to the anti-ILT7 antibody ILT7#33 provided in U.S. Published Application No. 2009/0280128) were used as positive controls.

[7] = target: T3, HA-tagged human ILT7 on CT-550 cells; assay: cell-based or functional assay
cynomolgus ILT7 [8] = target: T1, cynomolgus ILT7; assay: cell-based or functional assay

T3 sequence (P59901 24-499): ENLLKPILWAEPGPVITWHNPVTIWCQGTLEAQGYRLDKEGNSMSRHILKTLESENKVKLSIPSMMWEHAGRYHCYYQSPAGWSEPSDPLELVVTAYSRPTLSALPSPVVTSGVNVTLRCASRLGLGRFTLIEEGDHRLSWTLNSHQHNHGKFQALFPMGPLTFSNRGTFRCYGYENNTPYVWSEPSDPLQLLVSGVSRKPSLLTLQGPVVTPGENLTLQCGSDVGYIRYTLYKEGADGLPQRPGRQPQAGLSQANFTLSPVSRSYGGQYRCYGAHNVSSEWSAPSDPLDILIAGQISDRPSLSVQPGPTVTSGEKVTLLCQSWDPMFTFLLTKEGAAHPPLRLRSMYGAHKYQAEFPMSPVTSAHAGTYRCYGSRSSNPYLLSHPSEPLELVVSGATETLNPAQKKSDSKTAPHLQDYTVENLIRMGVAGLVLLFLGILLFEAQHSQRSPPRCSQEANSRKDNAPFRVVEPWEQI
T1 sequence (P59901 other isoform, or with tags, fused parts or gaps limits assumed): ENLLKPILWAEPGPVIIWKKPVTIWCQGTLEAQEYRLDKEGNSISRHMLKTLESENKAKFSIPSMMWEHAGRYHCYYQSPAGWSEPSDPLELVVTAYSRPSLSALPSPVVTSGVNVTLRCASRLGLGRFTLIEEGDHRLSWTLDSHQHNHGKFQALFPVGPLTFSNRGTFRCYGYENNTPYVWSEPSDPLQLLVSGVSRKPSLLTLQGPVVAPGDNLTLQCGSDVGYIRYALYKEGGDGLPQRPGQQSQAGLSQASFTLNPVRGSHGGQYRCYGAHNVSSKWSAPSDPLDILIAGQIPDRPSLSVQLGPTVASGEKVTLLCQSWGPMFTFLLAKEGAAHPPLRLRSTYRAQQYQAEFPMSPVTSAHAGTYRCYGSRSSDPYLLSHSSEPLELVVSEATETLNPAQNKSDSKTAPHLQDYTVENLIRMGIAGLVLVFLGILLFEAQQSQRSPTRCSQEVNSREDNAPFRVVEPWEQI
T2 sequence (P59901 24-499): as the sequence (P59901 24-499) above

Row | binding result (cynomolgus ILT7 [1]) | binding result (human ILT7) | EC50 (cynomolgus ILT7 [2]) [nM] | EC50 [3] [nM] | EC50 (cynomolgus ILT7 [4]) [nM] | EC50 (cynomolgus ILT7 [5]) [nM] | EC50 [6] | ADCC EC50 [7] | ADCC EC50 (cynomolgus ILT7 [8]) | Binder
1 | binds | binds | – | – | – | – | – | – | – | SBI28ch (antibody, V domains shown, also called chimeric SBI28; ILT7#28) VH: QVQLQQSGAELVKPGASVKMSCKAFGYTFTTYPIEWMKQNHGKSLEWIGNFHPYNDDTKYNEKFKGKAKLTVEKSSSTVYLELSRLTSDDSAVYYCARGDDYGMDYWGQGTSVTVSS VL: DIVMTQSQKFMSTSVGDRVSITCKASQNVRTAVAWYQQKPGQSPKALIYLASNRHTGVPDRFTGSGSGTDFTLTISNVQSEDLADYFCLQHWNYPFTFGSGTKLEIK
2 | – | – | 0.41 | 0.3 | 0.44 | 0.547 | 0.28 nM and 0.213 nM | 0.022 nM and 0.013 nM | 0.008 nM and 0.006 nM | ILT70080 (antibody, V domains shown, also called ITL70080) VH: QVQLVQSGAEVKAPGTSVKVSCKASGDSFRNYAVSWVRQAPGQGLEWMGAMMPSFGTREHSQQFNGRVTLSADESTSTAYLELSSLRYDDTAVYYCAGSRDYNAYHFWTGPPDFWGRGTLVTVSS VL: SYELTQPPSVSVAPGKTAKISCGGDSVGSTSVHWYQQKPGQAPVMVMFYNSDRPSGIPERFSGSISGNTATLTISRVEAGDEADYYCQVWDTSSDHPEFGGGTKLTVL
